Source: US6093549, “Huntingtin-associated protein-related assays” (The Johns Hopkins University, dated 2000)

Target: GAL-4 binding domain vector alone (pPC97) (yeast, UniProt P04386)
Assay: yeast two-hybrid filter assay
Source text: A cDNA encoding the first 230 amino acids of huntingtin containing 44 glutamine repeats was ligated to the GAL-4 binding domain in plasmid vector pPC97 for yeast two hybrid screening with a rat brain cDNA library.
A cDNA construct containing the first 230 amino acids with 44 or 23 glutamine repeats was in-frame fused with the GAL4 DNA binding domain of plasmid pPC97[27].

- binding result: no binding
B1: rHAP1-BR (rat huntingtin Associated Protein1 Binding Region), GAL-4 activation domain construct (other)
chain: LLEEENDHLREEASHLDNLEDKEQMLILECVEQFSEASQQMAELSEVLVLRLEGYERQQKEITQLQAEITKLQQRCQSYGAQTEKLQQQLASEKGVHPESLRAGSHMQDYGSRPRERQEDGKSHRQRSSMPAGSVTHYGYSVPLDALPSFPETLAEELRTSLRKFITDP
